Measured values as given in PMC3240630.
Like-named read-outs stand apart in the source and are kept apart here.

How the values were obtained:
[1] = biological target: monoubiquitin (UniProt P0CG48); settings: cited from earlier work
[2] = biological target: XIAP-UBA-RING double-domain construct (human); test: SEC; analytical size-exclusion chromatography of 15N-XIAP-UBA-RING at 0.18 mM (methods in Methods S1)
[3] = biological target: monoubiquitin (UniProt P0CG48); settings: cited from earlier work; remark: listed apart in the source
[4] = biological target: monoubiquitin (UniProt P0CG48); settings: cited from earlier work; remark: listed apart in the source
[5] = biological target: monoubiquitin (UniProt P0CG48); settings: cited from earlier work; remark: listed apart in the source
[6] = biological target: monoubiquitin (UniProt P0CG48); settings: cited from earlier work; remark: listed apart in the source
[7] = biological target: monoubiquitin (UniProt P0CG48); settings: cited from earlier work; remark: listed apart in the source
[8] = biological target: monoubiquitin (UniProt P0CG48); settings: cited from earlier work; remark: listed apart in the source

Sequence of hHR23A UBA2 (P54725 315-361): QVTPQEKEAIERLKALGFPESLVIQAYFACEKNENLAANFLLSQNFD
Sequence of cIAP-1 (Q13490 whole entry): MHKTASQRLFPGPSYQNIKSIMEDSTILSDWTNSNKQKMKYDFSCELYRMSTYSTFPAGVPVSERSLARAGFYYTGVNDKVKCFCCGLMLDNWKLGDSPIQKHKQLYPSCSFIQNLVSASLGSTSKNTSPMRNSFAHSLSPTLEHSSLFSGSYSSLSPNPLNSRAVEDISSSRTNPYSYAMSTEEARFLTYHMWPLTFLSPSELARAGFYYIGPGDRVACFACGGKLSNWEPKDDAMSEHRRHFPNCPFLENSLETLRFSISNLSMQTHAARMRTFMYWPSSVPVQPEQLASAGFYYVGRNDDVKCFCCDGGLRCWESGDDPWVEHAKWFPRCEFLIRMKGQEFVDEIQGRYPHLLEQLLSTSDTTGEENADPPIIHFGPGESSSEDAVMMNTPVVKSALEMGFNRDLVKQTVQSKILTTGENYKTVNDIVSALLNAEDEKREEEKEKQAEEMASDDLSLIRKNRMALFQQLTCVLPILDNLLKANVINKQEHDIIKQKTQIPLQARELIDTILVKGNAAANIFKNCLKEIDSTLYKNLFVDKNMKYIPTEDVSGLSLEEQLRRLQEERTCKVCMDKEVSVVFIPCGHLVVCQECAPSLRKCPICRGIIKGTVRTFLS
Sequence of Cbl-b UBA (Q13191 928-973): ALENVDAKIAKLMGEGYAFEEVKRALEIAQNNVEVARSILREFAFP
Sequence of Mud1 UBA (Q10256 291-332): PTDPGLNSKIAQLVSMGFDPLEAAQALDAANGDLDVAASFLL
Sequence of Dsk2 UBA (P48510 324-373): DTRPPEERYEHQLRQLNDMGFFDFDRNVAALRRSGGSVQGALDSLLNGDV
Sequence of Ede1 UBA (P34216 1335-1381): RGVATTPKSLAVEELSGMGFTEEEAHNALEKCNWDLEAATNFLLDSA
Sequence of Swa2 UBA (Q06677 137-183): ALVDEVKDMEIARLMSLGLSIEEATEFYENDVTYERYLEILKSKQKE

In the case of Mud1 UBA (from UniProt Q10256), the Kd [1] is listed as 350 µM.
Substance “XIAP-UBA-RING double-domain construct (domain or fragment)” has a stoichiometry N [2] of 2.
For hHR23A UBA2 (from UniProt P54725), the Kd [3] is given as 400 µM.
For Dsk2 UBA (from UniProt P48510), the Kd [4] is listed as 14.8 µM.
In the case of cIAP-1 (from UniProt Q13490), the Kd [5] is given as 56 µM.
In the case of Swa2 UBA (from UniProt Q06677), the Kd [6] is given as 535 µM.
For Cbl-b UBA (from UniProt Q13191), the Kd [7] is given as 53.1 µM.
In the case of Ede1 UBA (from UniProt P34216), the Kd [8] is given as 83 µM.
